# The DeepSol protein solubility set
# Assay: soluble on expression in E. coli; label from the status in PepcDB or PDB records
row,Sequence,soluble on expression in E. coli
1,AQRDVLAVLPQLNAVQNLAGDAPSWAEGYGLYQGDMLGEESASVYRKLLIAVFAPRLVTRIEEQLRSGGSSDFLYEGLKAYLMLGSPDHYDADFIKAWISLDWERNLPRDLSPEQRQALHAHLDALLERRPPSARLDQDLVEDLRRQLQQLPVAQRVYDRVKRQRLPKDVPDFRISDAAGRDAPLVFARKSGKPLTDPLSGFFTYRGYREVFLTASLSQAGTIAEEQWVLGRDLNDAGDAANLALDVRRLYFQDYLRQWDDLLADLTVVPITNVTQAADVLRILSGPTSPFRKLLEAVARETDLQKGDRLVAAQVKKAADGTVDKLKQRLGSLVGQEEEG,not soluble
2,AQSRTLLAGIVQQQQQLLDVVKRQQELLRLTVWGTKNLQTRVTAIEKYLKDQAQLNAWGAAFRQVAHTTVPWPNASLTPKWNNETWQEWERKVDFLEENITALLEEAQIQQEKNMYELQKLNS,soluble
3,ASSKNLSETLFQNHKQAKETSSLTQYMPSSLELLDTRREQSSQAWYRNLRRLQWIWQGVDPVEQEEILARIASSKHSRTHDEWLDTVMGYRSGNWTYEWTRVGMLHQKQAAERQGEEAADQMFAAALYYSIAGYPHLRNDNLALQAQVLANNAYQEAAKLTGFVVKRLEFSYQNKKIAGYLHLRNTDSPKPVVLVSAGLDSLQTDMWRLFRDYLAKRDIAMLTIDMPSLGASSHWPLTEDSSCLHQAVLNQLADLPWVDHFRIGLIGFRFGGNAMARLAFLESDKVKACVSLGAPIHDIFTSPNKLAAMPKMYLDVLASRLGKNVVDVRSLSGQLMAWSLKVQGFMSGRRTKTPILALGLEGDPVSPYSDNQLVALFSQGGQAKKVKSKTISQGYEQSLDLAINWLEDELC,not soluble
4,ATFSKLLYRHRQFYTQFPWVEDKIREVCHHLDVSEELLPTGERLSSRRLRTIGIDLGRSSGFYSLAYLFEDPFVNIHGEKRLRPDFLVDVGQRVSFAGAPLYAAIHESIYGGIGGTTTNWSAHRIREEFPGCEENADPRSAEPFYLTGEHIFPWQFDEDPALQPYKAAAEQLATTQWEHSPYDAEVLKEQAAVTAACVYLDDAFVPFELSMDTAHTYRDLRLHVTNRFQHDGIRWDGAGILSTLRDKVLDH,not soluble
5,ATKQAIEKDPWLSPEQKKAQKEKAKARLDEGLKALKAADSLEILKVTEEAFVDKEKNPDSIPNQHKAGTADQARKQALDSL,not soluble
6,AVPIAQKSEPHSLSSEALMRRAVSLVTDSTSTFLSQTTYALIEAITEYTKAVYTLTSLYRQYTSLLGKMNSEEEDEVWQVIIGARAEMTSKHQEYLKLETTWMTAVGLSEMAAEAAYQTGADQASITARNHIQLVKLQVEEVHQLSRKAETKLAEAQIEELKQKTQEEGEERAESEQEAYLRED,soluble
7,AVPTVVGIPDGTAVVGRSFRVSIPTDLIASSGEIIKVSAAGKEALPSWLHWDPHSHILEGLPLDTDKGVHYISVSAARLGANGSHVPQTSSVFSIEVYPEDHNEPQSVRAASSDPGEVVPSACAADEPVTVLTVILDADLTKMTPKQRIDLLNRMQSFSEVELHNMKLVPVVNNRLFDMSAFMAGPGNAKKVVENGALLSWKLGCSLNQNSVPDIRGVETPAREGAMSAQLGYPVVGWHIANKKPT,soluble
8,AWPEGQALGPGMPLPEPSEQEGESVKAGQEPSPKPGTDVIPAAPRKPREFSKLVLLTASDQDEDGVGSKPQEVHCVLSLEMAGPATLASTLQILPVEEQGGVVQPALEMPEQKCSKLDAAPQSLEFLRTPFGGRLLVLESFLYKQEKAVGDKVYWKCRQHAELGCRGRAITRGLRATVMRGHCHAPDEQGLEARRQREKLPSLALPEGLGEPQGPEGPGGRVEEPLEGVGPWQCPEEPEPTPGLVLSKPALEEEEAPRALSLLSLPPKKRSILGLGQARPLEFLRTCYGGSFLVHESFLYKREKAVGDKVYWTCRDHALHGCRSRAITQGQRVTVMRGHCHQPDMEGLEARRQQEKAVETLQAGQDGPGSQVDTLLRGVDSLLYRRGPGPLTLTRPRPRKRAKVEDQELPTQPEAPDEHQDMDADPGGPEFLKTPLGGSFLVYESFLYRREKAAGEKVYWTCRDQARMGCRSRAITQGRRVTVMRGHCHPPDLGGLEALRQREKRPNTAQRGSPGGPEFLKTPLGGSFLVYESFLYRREKAAGEKVYWTCRDQARMGCRSRAITQGRRVMVMRRHCHPPDLGGLEALRQREHFPNLAQWDSPDPLRPLEFLRTSLGGRFLVHESFLYRKEKAAGEKVYWMCRDQARLGCRSRAITQGHRIMVMRSHCHQPDLAGLEALRQRERLPTTAQQEDPEKIQVQLCFKTCSPESQQIYGDIKDVRLDGESQ,soluble
9,AYESIQVTSAQKHVLHVQLNRPEKRNAMNRAFWRELVECFQKISKDSDCRAVVVSGAGKMFTSGIDLMDMASDILQPPGDDVARIAWYLRDLISRYQKTFTVIEKCPKPVIAAIHGGCIGGGVDLISACDIRYCTQDAFFQVKEVDVGLAADVGTLQRLPKVIGNRSLVNELTFTARKMMADEALDSGLVSRVFPDKDVMLNAAFALAADISSKSPVAVQGSKINLIYSRDHSVDESLDYMATWNMSMLQTQDIIKSVQAAMEKKDSKSITFSKL,soluble
10,CPRLIRFVMEEDYANLPPLRRFLRRAGVIPISASNRSSIRRAFNDVEEALNEGHIVCIFPEGRLTSDGEMNDFMRGIDIILRRSPVPVIPMALKGLWGSYFSRAKGRACRGFPTRFWSKLEIEAGEPVDPSSATAQTMFEKVHALRGDWR,not soluble
11,CVIFPVEIDVSQTIIRDCQVDKQTRELVYINKIMNTQLTKPVLMMFNISGPIRSVTRKNNNLRDRIKSKVDEQFDQLERDYSDQMDGFHDSIKYFKDEHYSVSCQNGSVLKSKFAKILKSHDYTDKKSIEAYEKYCLPKLVDERNDYYVAVCVLKPGFENGSNQVLSFEYNPIGNKVIVPFAHEINDTGLYEYDVVAYVDSVQFDGEQFEEFVQSLILPSSFKNSEKVLYYNEASKNKSMIYKALEFTTESSWGKSEKYNWKIFCNGFIYDKKSKVLYVKLHNVTSALNKNVILNTIKA,soluble
12,DAGGGVGKELVDLKIIWNKTKHDVKVPLDSTGSELKQKIHSITGLPPAMQKVMYKGLVPEDKTLREIKVTSGAKIMVVGSTI,soluble
13,DDIDYANAEYYLGNTYDLVILDTVDNFQPINIGRLVDLARGGGLIIIYTNNLIKDKTFRTSIMRNGLILDEYEKRFKRKLYEHEGIFIIDVNEYIPKPFSGNTM,not soluble
14,DDNERLSKVEKARQLREQVNDLFSRKFGEAIGMGFPVKVPYRKITINPGCVVVDGMPPGVSFKAPSYLEISSMRRILDSAEFIKFTVIRPFPGLVINNQLV,soluble
15,DEGPLMMNAFEMITLSQGLNLSALFDRRQDFVKRQTRFVSRREPSEIIANIEAVANSMGFKSHTRNFKTRLEGLSSIKAGQLAVVIEIYEVAPSLFMVDVRKAAGETLEYHKFYKKLCSKLENIIWRATEGIPKSEILRTITF,soluble
16,DERVFEQELENGLRLFIIPKPGFQKTFVTYTTQFGSLDNQFKPLGQDQFVTVPDGVAHFLEHKLFEKEEEDLFTAFAEDNAQANAFTSFDRTSYLFSATDNIENNIKRLLTMVETPYFTKETVDKEKGIIAEEIKMYQEQPGYKLMFNTLRAMYQRHPIRVDIAGSVESIYDITKDDLYLCYETFYHPSNMVLFVVGDVNPEEICRIVKQHEDARNKVNQPKIER,not soluble
17,DGDYIKDAVKEINYFMRDWRVDQVKSMDLRTVDIMAAAHNLMDVNEPYMLLSGYRSPQTNAMLRSRSRGVARNSLHMQGQAADLRLASRSVSQMANAAIACRAGGVGKYYRSNFVHMDCGEVRSWGG,not soluble
18,DGSFQGSVFVAVDIGERKRTEQALRENEQHLKNILDSIHAGILVIDPQDHRIVDANTFALDMIGAPKGLVVDRICHNFVCSAVQGACPITDLLENMDNSERRLLRFDGTSIPILKSVVPVTYQGRKLLIESFID,not soluble
19,DHIPGTDIDLTVPYAAEGPGPTVNTLGDVDGKPVVNVSGAEIHKTTGNLNMTTVSVRTHLTLGQALGRWLIAHDTLVPIEQIFPQGKTPEEVDEVNKAAFSTSEASATIAAMNQLHKPVDT,not soluble
20,DIQMTQSPSSLSASVGDRVTITCRASQDIPRSISGYVAWYQQKPGKAPKLLIYWGSYLYSGVPSRFSGSGSGTDFTLTISSLQPEDFATYYCQQHYTTPPTFGQGTKVEIKRTVAAPSVFIFPPSDEQLKSGTASVVCLLNNFYPREAKVQWKVDNALQSGNSQESVTEQDSKDSTYSLSSTLTLSKADYEKHKVYACEVTHQGLSSPVTKSFNRGEC,soluble
21,DITEIEEAMNRQRVAGRVFEASQDGLIVLNHKGVITMVNPAVTKLVGLEIDQLVGQSFIQTIRWRKLQEMMPSIIESIENYGVWQGEVIEQNHLGLLVPMFARVNRIVKCENNGFYDLVIILTD,not soluble
22,DITVYNGQHKEAATAVAKAFEQETGIKVTLNSGKSEQLAGQLKEEGDKTPADVFYTELTATFADLSEAGLLAPISEQTIQQTAQKGVPLAPKKDWIALSGRSRVVVYDHTKLSEKDMEKSVLDYATPKWKGKIGYVSTSGAFLEQVVALSKMKGDKVALNWLKGLKENGKLYAKNSVALQAVENGEVPAALINNYYWYNLAKEKGVENLKSRLYFVRHQDPGALVSYSGAAVLKASKNQAEAQKFVDFLASKKGQEALVAARAEYPLRADVVSPFNLEPYEKLEAPVVSATTAQDKEHAIKLIEEAGLK,soluble
23,DKEVVVLGSGDPMFHGIGSTLHRLLPNHSMTVIPQPSSASLACARLGWALDTTSVYSLVTHPIAHLTLAIEQGDRFLVLGRNHESPHEICEHLISLGQSTAEVTVLSDIGSVSETITSGAATDYPSNDSALNVIAIRPLAATRSRVPGLPDSEYVTDGQLTKQHVRALAISALAPKPHETLWDIGGGSGSIAIEWLRSTPQTTAVCFEISEERRERILSNAINLGVSDRIAVQQGAPRAFDDVPDNPD,not soluble
24,DLAKELFTHKGSGTLIRRGERVIRATTWKDLDLPRLQHLIQSSFRRTLIPHYFETTPLLRAYVSENYRAAVILTKLGNVPYLDKFAVLDDAQGEGLGRAVWSIMREETPQLFWRSRHNNQANAFYYAESDGYYKQDHWKIFWNGLHHFQQIQQCVAHCTQH,not soluble
25,DLLSWFKGNDRPPAPAGKALEFSKPAAWQNNLPLTPADKVSGYNNFYEFGLDKADPAANAGSLKTDPWTLKISGEVAKPLTLDHDDLTRRFPLEERIYRMRCVEAWSMVVPWIGFPLHKLLALAEPTSNAKYVAFETIYAPEQMPGQQDRFIGGGLKYPYVEGLRLDEAMHPLTLMTVGVYGKALPPQNGAPVRLIVPWKYGFKGIKSIVSIKLTRERPPTTWNLAAPDEYGFYANVNPYVDHPRWSQATERFIGSGGILDVQRQPTLLFNGYADQVASLYRGLDLRENFLEHHHHHH,soluble
26,DLQTLLDKSFNLIISTLDAKYCKILKLLNDGNFLVEAGVGWKPEDTGKVIKREEASVAGYTVLSKKPINIEDLDKKGSIERMGLYGYSEITHGISVLVGSLEKPYGVLAVHSTRKEKFTKEDACFLKGIASMLSLALERNKVESTL,not soluble
27,DNFNQQKKKFGGQDIFMTEEQKKYYNAMKKLGSKKPQKPIPRPANKFQGMVFD,soluble
28,DPAAADRAEELRIQNLLKQLQQAVTNNDLTIYYQPIMSLQQQSLELYQIYIGLHGDEELISSVTLLEIAKKRELIAQIDRWVVARAIAQIGERQRAGHTTHLLVQIDSASFTDPQLLTMLRTELAAHHVRGEQLWLQTPESKVFTHLYNAQQFLSEISVQGCKMGLEQFGTGLDSFQLLTHFKPAFLKLDRNLTQDINSNHDSLEKIREITSRAQDNGIATFAEFVTDSTSMSALFKVGVDYVQGDFVAPI,not soluble
